Experimental data published in PMC2756588.

How the values were obtained:
Assay in all cases: SPOT array
Abp1, P15891 = target: T1, Abp1, P15891; conditions: median of control spots 935
T1 sequence (P15891 535-592, looked up): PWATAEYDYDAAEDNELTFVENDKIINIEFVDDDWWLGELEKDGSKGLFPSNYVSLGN

Bbc1, P47068 = target: T2, Bbc1, P47068; conditions: median of control spots 796
T2 sequence (P47068 1-78, looked up): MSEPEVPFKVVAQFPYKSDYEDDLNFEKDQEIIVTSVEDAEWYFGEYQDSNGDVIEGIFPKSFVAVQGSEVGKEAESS

Bem1-1, P29366 = conditions: median of control spots 4282
Bem1-2, P29366 = conditions: median of control spots 4347
Boi1, P38041 = target: T3, Boi1, P38041; conditions: median of control spots 1162
T3 sequence (P38041 1-86, looked up): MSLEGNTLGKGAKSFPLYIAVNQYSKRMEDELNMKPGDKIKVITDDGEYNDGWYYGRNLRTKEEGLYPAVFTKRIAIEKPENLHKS

Boi2, P39969 = target: T4, Boi2, P39969; conditions: median of control spots 1161
T4 sequence (P39969 32-116, looked up): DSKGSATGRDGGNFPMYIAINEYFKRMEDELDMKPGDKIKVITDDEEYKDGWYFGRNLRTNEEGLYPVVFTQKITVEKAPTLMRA

Bud14, P27637 = target: T5, Bud14, P27637; conditions: median of control spots 956
T5 sequence (P27637 247-328, looked up): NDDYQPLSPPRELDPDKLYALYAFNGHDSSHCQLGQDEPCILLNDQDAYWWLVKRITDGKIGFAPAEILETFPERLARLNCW

Bzz1-1, P38822 = target: T6, Bzz1-1, P38822; conditions: median of control spots 4446
T6 sequence (P38822 478-572, looked up): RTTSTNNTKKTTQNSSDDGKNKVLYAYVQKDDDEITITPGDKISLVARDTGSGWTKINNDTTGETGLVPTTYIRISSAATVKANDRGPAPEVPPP

Bzz1-2, P38822 = target: T7, Bzz1-2, P38822; conditions: median of control spots 4538
T7 sequence (P38822 568-633, looked up): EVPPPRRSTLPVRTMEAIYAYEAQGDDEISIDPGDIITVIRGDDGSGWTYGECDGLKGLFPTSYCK

Cdc25, P04821 = target: T8, Cdc25, P04821; conditions: median of control spots 969
T8 sequence (P04821 50-136, looked up): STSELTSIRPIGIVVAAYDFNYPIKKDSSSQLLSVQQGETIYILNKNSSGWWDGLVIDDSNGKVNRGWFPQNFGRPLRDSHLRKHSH

Cyk3, Q07533 = target: T9, Cyk3, Q07533; conditions: median of control spots 1451
T9 sequence (Q07533 1-83, looked up): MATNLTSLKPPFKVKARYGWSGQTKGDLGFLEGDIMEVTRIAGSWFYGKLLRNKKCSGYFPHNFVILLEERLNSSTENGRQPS

Fus1, P11710 = target: T10, Fus1, P11710; conditions: median of control spots 1200
T10 sequence (P11710 432-512, looked up): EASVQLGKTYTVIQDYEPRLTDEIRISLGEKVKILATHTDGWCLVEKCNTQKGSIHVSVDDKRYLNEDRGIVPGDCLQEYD

GST = conditions: median of control spots 978
Hof1, Q05080 = target: T11, Hof1, Q05080; conditions: median of control spots 4086
T11 sequence (Q05080 590-669, looked up): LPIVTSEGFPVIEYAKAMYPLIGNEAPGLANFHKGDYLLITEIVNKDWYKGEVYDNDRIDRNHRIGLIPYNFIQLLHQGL

Hse1, P38753 = target: T12, Hse1, P38753; conditions: median of control spots 1727
T12 sequence (P38753 208-285, looked up): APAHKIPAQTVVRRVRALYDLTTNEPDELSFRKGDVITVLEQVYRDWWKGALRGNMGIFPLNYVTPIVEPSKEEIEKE

Lsb1, P53281 = target: T13, Lsb1, P53281; conditions: median of control spots 388
T13 sequence (P53281 45-122, looked up): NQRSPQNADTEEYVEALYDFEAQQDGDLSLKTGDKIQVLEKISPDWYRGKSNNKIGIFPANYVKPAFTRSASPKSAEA

Lsb3, P43603 = target: T14, Lsb3, P43603; conditions: median of control spots 406
T14 sequence (P43603 385-451, looked up): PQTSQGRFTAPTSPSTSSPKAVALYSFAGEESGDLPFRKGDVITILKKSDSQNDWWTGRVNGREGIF

Lsb4, P32793 = target: T15, Lsb4, P32793; conditions: median of control spots 397
T15 sequence (P32793 402-468, looked up): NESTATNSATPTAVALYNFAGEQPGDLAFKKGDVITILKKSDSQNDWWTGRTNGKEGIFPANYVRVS

Myo3, P36006 = conditions: median of control spots 468
Myo5, Q04439 = target: T16, Myo5, Q04439; conditions: median of control spots 471
T16 sequence (Q04439 1072-1160, looked up): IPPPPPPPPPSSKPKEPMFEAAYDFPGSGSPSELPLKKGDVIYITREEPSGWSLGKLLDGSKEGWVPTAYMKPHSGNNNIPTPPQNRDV

Nbp2, Q12163 = target: T17, Nbp2, Q12163; conditions: median of control spots 357
T17 sequence (Q12163 103-180, looked up): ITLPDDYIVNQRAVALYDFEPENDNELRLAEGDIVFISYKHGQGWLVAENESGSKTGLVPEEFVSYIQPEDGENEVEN

Pex13, P80667 = target: T18, Pex13, P80667; conditions: median of control spots 1341
T18 sequence (P80667 295-386, looked up): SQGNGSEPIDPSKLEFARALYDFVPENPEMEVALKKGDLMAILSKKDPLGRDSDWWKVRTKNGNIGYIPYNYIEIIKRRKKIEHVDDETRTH

Pin3, Q06449 = target: T19, Pin3, Q06449; conditions: median of control spots 2171
T19 sequence (Q06449 53-122, looked up): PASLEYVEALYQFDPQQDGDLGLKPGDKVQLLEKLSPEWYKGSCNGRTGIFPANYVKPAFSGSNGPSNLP

Rvs167, P39743 = conditions: median of control spots 2707
Sho1, P40073 = conditions: median of control spots 1148
Sla1-2, P32790 = target: T20, Sla1-2, P32790; conditions: median of control spots 712
T20 sequence (P32790 60-140, looked up): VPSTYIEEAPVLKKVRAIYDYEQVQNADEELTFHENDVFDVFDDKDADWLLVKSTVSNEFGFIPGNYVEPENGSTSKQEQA

Sla1-3, P32790 = target: T21, Sla1-3, P32790; conditions: median of control spots 5475
T21 sequence (P32790 344-424, looked up): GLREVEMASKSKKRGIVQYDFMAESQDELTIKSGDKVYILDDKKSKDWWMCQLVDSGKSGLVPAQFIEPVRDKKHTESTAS

Sequence of Bem1-2, P29366 (P29366 139-227): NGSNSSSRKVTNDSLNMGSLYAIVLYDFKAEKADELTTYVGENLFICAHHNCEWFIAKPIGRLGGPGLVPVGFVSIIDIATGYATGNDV
Sequence of Bem1-1, P29366 (P29366 55-141): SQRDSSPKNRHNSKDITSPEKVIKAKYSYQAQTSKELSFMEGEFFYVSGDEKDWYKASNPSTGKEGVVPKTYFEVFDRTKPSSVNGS
Sequence of Rvs167, P39743 (P39743 419-482): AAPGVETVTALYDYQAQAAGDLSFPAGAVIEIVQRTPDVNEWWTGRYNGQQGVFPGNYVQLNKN
Sequence of Sho1, P40073 (P40073 287-367): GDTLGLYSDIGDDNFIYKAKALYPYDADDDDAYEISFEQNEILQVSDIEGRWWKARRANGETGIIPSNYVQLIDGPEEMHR

B1: unnamed (peptide)
chain: QTREPNEPPPPSPAM
With B1 the SPOT intensity (Abp1, P15891) was 7, the SPOT intensity (Bbc1, P47068) was 0 and the SPOT intensity (Bem1-1, P29366) was 1. For the same binder, the SPOT intensity (Bem1-2, P29366) was 0, the SPOT intensity (Boi1, P38041) was 0 and the SPOT intensity (Boi2, P39969) was 3. The SPOT intensity (Bud14, P27637) was 0, the SPOT intensity (Bzz1-1, P38822) was 0 and the SPOT intensity (Bzz1-2, P38822) was 0. It also gave an SPOT intensity (Cdc25, P04821) of 0, an SPOT intensity (Cyk3, Q07533) of 1 and an SPOT intensity (Fus1, P11710) of 0. For the same binder, the SPOT intensity (GST) was 0, the SPOT intensity (Hof1, Q05080) was 0 and the SPOT intensity (Hse1, P38753) was 0. It also gave an SPOT intensity (Lsb1, P53281) of 0, an SPOT intensity (Lsb3, P43603) of 2 and an SPOT intensity (Lsb4, P32793) of 13. For the same binder, the SPOT intensity (Myo3, P36006) was 502, the SPOT intensity (Myo5, Q04439) was 515 and the SPOT intensity (Nbp2, Q12163) was 0. It also gave an SPOT intensity (Pex13, P80667) of 7, an SPOT intensity (Pin3, Q06449) of 21 and an SPOT intensity (Rvs167, P39743) of 4. For the same binder, the SPOT intensity (Sho1, P40073) was 0, the SPOT intensity (Sla1-2, P32790) was 0 and the SPOT intensity (Sla1-3, P32790) was 0.

B2: unnamed (peptide)
chain: DTFLPPPPPPPSNFE
B2 was tested, and the SPOT intensity (Abp1, P15891) was 0, the SPOT intensity (Bbc1, P47068) was 0 and the SPOT intensity (Bem1-1, P29366) was 0. For the same binder, the SPOT intensity (Bem1-2, P29366) was 0, the SPOT intensity (Boi1, P38041) was 1 and the SPOT intensity (Boi2, P39969) was 3. It also gave an SPOT intensity (Bud14, P27637) of 0, an SPOT intensity (Bzz1-1, P38822) of 3 and an SPOT intensity (Bzz1-2, P38822) of 0. The SPOT intensity (Cdc25, P04821) was 0, the SPOT intensity (Cyk3, Q07533) was 0 and the SPOT intensity (Fus1, P11710) was 0. For the same binder, the SPOT intensity (GST) was 0, the SPOT intensity (Hof1, Q05080) was 0 and the SPOT intensity (Hse1, P38753) was 0. The SPOT intensity (Lsb1, P53281) was 0, the SPOT intensity (Lsb3, P43603) was 0 and the SPOT intensity (Lsb4, P32793) was 0. The SPOT intensity (Myo3, P36006) was 518, the SPOT intensity (Myo5, Q04439) was 453 and the SPOT intensity (Nbp2, Q12163) was 0. It also gave an SPOT intensity (Pex13, P80667) of 8, an SPOT intensity (Pin3, Q06449) of 0 and an SPOT intensity (Rvs167, P39743) of 0. The SPOT intensity (Sho1, P40073) was 0, the SPOT intensity (Sla1-2, P32790) was 0 and the SPOT intensity (Sla1-3, P32790) was 0.

B3: unnamed (peptide)
chain: VDFTLPPPPPPPGLD
B3 showed an SPOT intensity (Abp1, P15891) of 0, an SPOT intensity (Bbc1, P47068) of 0 and an SPOT intensity (Bem1-1, P29366) of 0. For the same binder, the SPOT intensity (Bem1-2, P29366) was 0, the SPOT intensity (Boi1, P38041) was 2 and the SPOT intensity (Boi2, P39969) was 0. For the same binder, the SPOT intensity (Bud14, P27637) was 0, the SPOT intensity (Bzz1-1, P38822) was 1 and the SPOT intensity (Bzz1-2, P38822) was 1. It also gave an SPOT intensity (Cdc25, P04821) of 0, an SPOT intensity (Cyk3, Q07533) of 0 and an SPOT intensity (Fus1, P11710) of 0. For the same binder, the SPOT intensity (GST) was 0, the SPOT intensity (Hof1, Q05080) was 143 and the SPOT intensity (Hse1, P38753) was 0. It also gave an SPOT intensity (Lsb1, P53281) of 0, an SPOT intensity (Lsb3, P43603) of 0 and an SPOT intensity (Lsb4, P32793) of 0. For the same binder, the SPOT intensity (Myo3, P36006) was 491, the SPOT intensity (Myo5, Q04439) was 367 and the SPOT intensity (Nbp2, Q12163) was 0. It also gave an SPOT intensity (Pex13, P80667) of 2, an SPOT intensity (Pin3, Q06449) of 0 and an SPOT intensity (Rvs167, P39743) of 0. The SPOT intensity (Sho1, P40073) was 0, the SPOT intensity (Sla1-2, P32790) was 1 and the SPOT intensity (Sla1-3, P32790) was 0.

B4: unnamed (peptide)
chain: GKFIPSRPAPKPPSS
Binder B4 has an SPOT intensity (Abp1, P15891) of 231, an SPOT intensity (Bbc1, P47068) of 138 and an SPOT intensity (Bem1-1, P29366) of 1. It also gave an SPOT intensity (Bem1-2, P29366) of 14600, an SPOT intensity (Boi1, P38041) of 3 and an SPOT intensity (Boi2, P39969) of 4. For the same binder, the SPOT intensity (Bud14, P27637) was 0, the SPOT intensity (Bzz1-1, P38822) was 2 and the SPOT intensity (Bzz1-2, P38822) was 52. The SPOT intensity (Cdc25, P04821) was 4, the SPOT intensity (Cyk3, Q07533) was 2 and the SPOT intensity (Fus1, P11710) was 0. It also gave an SPOT intensity (GST) of 0, an SPOT intensity (Hof1, Q05080) of 0 and an SPOT intensity (Hse1, P38753) of 0. It also gave an SPOT intensity (Lsb1, P53281) of 360, an SPOT intensity (Lsb3, P43603) of 21 and an SPOT intensity (Lsb4, P32793) of 56. The SPOT intensity (Myo3, P36006) was 553, the SPOT intensity (Myo5, Q04439) was 593 and the SPOT intensity (Nbp2, Q12163) was 2880. The SPOT intensity (Pex13, P80667) was 362, the SPOT intensity (Pin3, Q06449) was 12 and the SPOT intensity (Rvs167, P39743) was 5. It also gave an SPOT intensity (Sho1, P40073) of 22, an SPOT intensity (Sla1-2, P32790) of 0 and an SPOT intensity (Sla1-3, P32790) of 492.
